Patent US20260001937A1, “NOVEL RECOMBINANT FIBRINOGEN VARIANTS FOR FIBRIN SEALANTS FOR SURGICAL WOUND CARE” (Julius-Maximilians-Universität Würzburg, priority 2022, published 2026)

How the values were obtained:
[1] = tested on: ExpiCHO-S cells; test: α-chain degradation of recombinant fibrinogen during CHO cell expression (SDS-PAGE, in-gel digest MS); type: cell-based, Chinese hamster; settings: no protease inhibitor added
Protocol: Fibrinogen variants were expressed according to the user manual (Thermo Scientific, Waltham, USA). Briefly, ExpiCHO-S™ cells (Thermo Scientific, Waltham, USA) were cultured to a final density of 10×10^6 cells/mL. Plasmids encoding for the different fibrinogen variants (0.8 μg/mL of culture) as well as ExpiFectamine™ CHO (Thermo Scientific, Waltham, USA) were diluted in 5 mL of cold OptiPro™ medium (Thermo Scientific, Waltham, USA) and incubated for 5 min at RT. The ExpiFectamine™ CHO/DNA complex was transferred to the shaker flask and incubated at 37° C. and 8% CO2 and 130 rpm. After 24 h of incubation, ExpiFectamine™ CHO Enhancer and ExpiFectamine™ CHO Feed (Thermo Scientific, Waltham, USA) were added to the culture flask. The culture flasks were transferred to an incubator at 32° C. and 8% CO2 with shaking at 130 rpm. This step was repeated after 4 days of incubation. After another incubation step of up to 7 days at 32° C. and 8% CO2 and 130 rpm cells were harvested and centrifuged at 3000 rpm for 15 minutes. […]
Purified proteins and conjugates were analyzed using Tris-glycine SDS-PAGE either with or without the addition of β-mercaptoethanol as described before.58 Gels were stained with Coomassie Brilliant Blue G250 and documented using FluorChem FC2 imaging system (Protein Simple, Santa Clara, USA). […]

[2] = molecular target: thrombin (Homo sapiens, UniProt P00734); test: Thrombin-catalyzed fibrin polymerization, turbidity at 350 nm; type: biochemical; settings: fibrinogen 0.1 mg/mL, thrombin 0.05 U/mL
Protocol: FIG. 26: Thrombin-catalyzed fibrin polymerization. Polymerization of fibrinogen (0.1 mg/mL) was initiated by the addition of thrombin (0.05 U/mL), factor XIIIa (Fibrogammin®, CSL Behring) (50 mU/ml) as well as CaCl2 (10 mM). The change in turbidity at 350 nm was followed with time (0-3600 sec). Representative polymerization curves of plasma Fibrinogen (square) and His-rFbgH433R435 (triangle).
Turbidity experiments were conducted on a Tecan Infinite M Plex plate reader at 37° C. A 96-well plate with a final volume of 100 μl per well was used and was experiments were performed in triplicate. The Thrombin-catalyzed fibrin polymerization of fibrinogen (0.1 mg/mL) was initiated by the addition of thrombin (0.05 U/mL), factor Xllla (Fibrogammin®, CSL Behring; 50 mU/ml) as well as CaCl2 (10 mM). The change in turbidity at 350 nm was followed over time (0-3600 sec).

[3] = molecular target: T1, FXIIIa (Homo sapiens, UniProt P00488); test: FXIIIa-catalyzed cross-linking of fibrin (SDS-PAGE, reducing); type: biochemical
T1 construct: purchased CSL Behring Fibrogammin
T1 sequence (P00488 39-732 limits assumed): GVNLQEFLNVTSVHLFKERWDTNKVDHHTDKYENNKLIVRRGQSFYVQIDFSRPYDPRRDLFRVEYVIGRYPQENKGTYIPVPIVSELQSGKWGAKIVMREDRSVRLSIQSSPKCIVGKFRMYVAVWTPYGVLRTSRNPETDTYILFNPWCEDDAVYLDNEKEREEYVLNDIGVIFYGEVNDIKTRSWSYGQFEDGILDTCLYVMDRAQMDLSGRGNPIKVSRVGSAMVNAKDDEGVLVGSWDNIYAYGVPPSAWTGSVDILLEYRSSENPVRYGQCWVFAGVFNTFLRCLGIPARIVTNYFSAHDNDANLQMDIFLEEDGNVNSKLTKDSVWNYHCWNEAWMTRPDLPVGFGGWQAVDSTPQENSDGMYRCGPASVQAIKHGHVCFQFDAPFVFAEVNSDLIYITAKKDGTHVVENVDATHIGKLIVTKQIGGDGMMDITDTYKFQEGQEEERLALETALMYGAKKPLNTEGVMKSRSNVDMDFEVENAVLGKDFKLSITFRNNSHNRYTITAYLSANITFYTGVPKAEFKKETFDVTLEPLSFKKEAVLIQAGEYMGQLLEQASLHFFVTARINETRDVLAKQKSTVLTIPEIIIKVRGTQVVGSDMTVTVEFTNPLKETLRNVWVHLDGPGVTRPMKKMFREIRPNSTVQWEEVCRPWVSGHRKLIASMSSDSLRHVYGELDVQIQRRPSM
Protocol: FIG. 27: FXIIIa-catalyzed cross-linking of fibrinogen. Crosslinking of His-rFbgH433R435 by rFXIIIa was examined with SDS-PAGE, under reducing conditions. Fibrinogen (0.1 mg/mL) was mixed with FXIIIa (0.5 mU/mL) and thrombin (0.05 U/mL), and the reaction was incubated for the specified time at 37° C. The reduced fibrin chains (α, β, γ, cross-linked γ-γ dimer) are indicated on the right side of the gel.
To examine cross-linking of fibrin, fibrinogen (0.1 mg/mL) was incubated at 37° C. with FXIIIa ([…]) and human-thrombin (final concentration, 0.05 U/mL) in Tris-buffer and CaCl2 (10 mM). The reactions were stopped at various times by addition of an equal volume of sodium dodecyl sulfate (SDS) sample buffer with 2-mercaptoethanol and incubation (5 min) at 90° C. Samples were separated on SDS-polyacrylamide gel electrophoresis (SDS-PAGE) and stained with Coomassie brilliant blue.

thrombin-induced fibrin polymerization compared with control (pFbg) ([2]; factor XIIIa 50 mU/ml, CaCl2 10 mM, 37° C., 0-3600 sec): slightly reduced
absorption in fibrin polymerization compared with control (pFbg) ([2]; turbidity 350 nm): comparable
lag time of fibrin polymerization compared with control (pFbg) ([2]; turbidity 350 nm): similar
formation of functional fibrin gels ([3]; conclusion from polymerization and cross-linking experiments): forms functional fibrin gels
incubation time after which cross-linked γ-γ-dimer bands were visible ([3]; fibrinogen 0.1 mg/mL, FXIIIa 0.5 U/mL, thrombin 0.05 U/mL, CaCl2 10 mM, 37° C.): 5 min
Substance: His-rFbgH433R435: Aα, Bβ- and γ-chain fibrinogen; α-chain L433H, T435R (SEQ ID 79), γ-chain K88H, K111H, K382H, K399H (SEQ ID 80)
α-chain degradation during CHO cell protein expression [1]: not detectable
